In patent publication US20070179113A1, “GM-CSF gene therapy for Crohn's disease using an improved regulated expression system” (Schering Aktiengesellachaft, priority 2005, published 2007):

Columns and labels:
[1] = mGM-CSF concentration in sera at day 8 of the DSS colitis study; conditions: final day of DSS study
Protocol: At day 8, the final day of the study, mGM-CSF concentrations were measured in sera of all mice.

[2] = tested on: DSS-induced colitis in Balb/C mice; experiment: DSS-induced colitis model (5% DSS), validation, Disease Activity Index; format: in vivo; conditions: daily treatment, Mesopram/Metronidazole 50 mg/kg IP, mGM-CSF 5 μg non-pegylated, 5 or 10 μg pegylated
Protocol: Disease was induced in BalbC mice (N=10/group) by DSS (5%) applied daily in the drinking water. Mesopram, Metronidazole, or yeast expressed non-pegylated respectively pegylated mGM-CSF, was administered daily over a period of 8 days. Clinical scores (Daily Activity Index (DAI), a cumulative index of: weight loss, stool consistency, and rectal bleeding) were recorded daily.
(§1) Likewise, the DSS-induced mouse colitis model is useful for evaluating therapies for UC, IBD and CD. Disease is induced in mice by daily administration of 5% or 7% dextran sodium sulfate (DSS) in the drinking water over 8 days. Disease progression is monitored by the Daily Activity Index (DAI), a cumulative index of: weight loss, stool consistency, and rectal bleeding, which mimics the symptoms of UC, IBD and/or CD.
vi. DSS-induced colitis model. Prior to the gene delivery study the model was established and validated in Balb/C mice using non-pegylated and pegylated mGM-CSF protein. Disease was induced in Balb/C mice with 5% dextran sodium sulfate (DSS), provided in the drinking water every day over a period of 8 days. As the main endpoint, the Disease Activity Index (DAI, a cumulative index of: weight loss, stool consistency, and rectal bleeding) was recorded daily. […]

[3] = Pharmacokinetic study of mGM-CSF protein formulations, serum mGM-CSF ELISA; format: in vivo, BalbC mice; conditions: i.m. injection
Protocol: FIG. 40 illustrates the use of ELISA for detection of murine GM-CSF. BalbC mice (n=5/group) were injected i.m. with 5 or 10 μg non-pegylated, or 5 μg pegylated mGM-CSF. Mice received either a single injection or 4 daily injections. Serum was obtained 1, 3, 6, and 12 hours following the single injection or the fourth injection. mGM-CSF levels in serum were measured using the ELISA from R&D (Minneapolis).
i. GM-CSF ELISA validation. A commercially available ELISA (R&D, Minneapolis) was validated for the detection of murine (m)GM-CSF in serum. In a pharmacokinetic study two formulations of mGM-CSF protein, non-pegylated or pegylated, were injectedi.m. and serum samples were assayed for mGM-CSF. […] The levels of non-pegylated mGM-CSF dropped rapidly within 3 hours following administration, whereas pegylated mGM-CSF was detectable over a 12 hour period.

[4] = tested on: DSS-induced colitis; experiment: DSS-induced colitis model (7% DSS), proof of concept with pCMV-GMCSF plasmid DNA; format: in vivo, mice; conditions: plasmid single injection day 0 + EP, drugs and protein daily
Protocol: Two concentrations of pCMV-mGMCSF were tested side by side with a control plasmid (pNull) and two mGM-CSF protein formulations, non-pegylated and pegylated in the DSS-induced colitis model (N=10/group). A single plasmid DNA injection was administered at day 0 followed by electroporation. Murine GM-CSF protein was injected s.c. daily. Disease was induced with 7% DSS in the drinking water and clinical scores (DIA) were recorded daily.
as §1
vii. […] In this study the efficacy of pGMCSF plasmid DNA was evaluated side by side with Mesopram, Metronidazole, non-pegylated or pegylated mGM-CSF. The disease was induced using 7% DSS, administered daily in the drinking water. Mesopram, Metronidazole and mGM-CSF protein were administered daily, using the same dosing regimen as described for the validation study. pGMCSF plasmid DNA was injected at day 0 followed by electroporation. […]

B1: non-pegylated mGM-CSF: yeast expressed non-pegylated murine GM-CSF protein (protein, UniProt P01587 18-141, looked up)
Granulocyte-macrophage …: APTRSPITVTRPWKHVEAIKEALNLLDDMPVTLNEEVEVVSNEFSFKKLTCVQTRLKIFEQGLRGNFTKLKGALNMTASYYQTYCPPTPETDCETQVTTYADFIDSLKTFLTDIPFECKKPGQK
With B1 the “GM-CSF in sera at day 8” value [1] was “could be measured”, the DAI score [2] was “significantly reduced” and the “time within which serum levels dropped rapidly following administration” value [3] was ≤ 3 h. The “disease scores (DAI)” value [4] was “efficacious”.

B2: pegylated mGM-CSF: pegylated murine GM-CSF protein (conjugate, UniProt P01587 18-141, looked up)
Granulocyte-macrophage …: B1 Granulocyte-macrophage …
modifications: PEG
notes: pegylated murine GM-CSF protein
With B2 the DAI score [2] was “significantly reduced”, the “period over which detectable in serum” value [3] was 12 h and the “disease scores (DAI)” value [4] was “efficacious”.
